The experiment addresses gp120 of HIV-1 strain IIIB (HIV-1 IIIB).

B1: murine monoclonal antibody NM-01 (antibody, V domains shown)
VH: QIQLKESGPAVIKPSQSLSLTCIVSGFSITSSSYCWHWIRQPPGKGLEWMGRICYEGSIDYSPSIKSRSTISRDTSLNRFFIQLSSVTNEDTAMYYCSRENHGTTTSMDYWGQGTSVTVSS
VL: DIVLTQSPASLAVSLGQRATISCRASESVDSYGNSFMHWYQQKPGQSPKLLIYVASNLESGVPARFSGSGSRTDFTLTIDPVEADDAATYYCQQNNEDPLTFGAGTKLELK
The molecule B1 yielded a 50% neutralization by the p24 assay of 0.15 µg/mL and an ID50 (reverse transcriptase assay) of 0.2 µg/mL.

Source of the values: patent US5607847.
